{
  "source": "paper PMC4165444",
  "about": "(Biochemistry, 2014)",
  "proteins": {"B1": {"name": "Saccharomyces cerevisiae alcohol dehydrogenase I (enzyme, UniProt P00330 1-348, looked up)", "chain": "MSIPETQKGVIFYESHGKLEYKDIPVPKPKANELLINVKYSGVCHTDLHAWHGDWPLPVKLPLVGGHEGAGVVVGMGENVKGWKIGDYAGIKWLNGSCMACEYCELGNESNCPHADLSGYTHDGSFQQYATADAVQAAHIPQGTDLAQVAPILCAGITVYKALKSANLMAGHWVAISGAAGGLGSLAVQYAKAMGYRVLGIDGGEGKEELFRSIGGEVFIDFTKEKDIVGAVLKATDGGAHGVINVSVSEAAIEASTRYVRANGTTVLVGMPAGAKCCSDVFNQVVKSISIVGSYVGNRADTREALDFFARGLVKSPIKVVGLSTLPEIYEKMEKGQIVGRYVVDTSK", "modifications": "disulfide bond between Cys-277 residues of the two subunits of a dimer"}},
  "target": "the molecule itself",
  "test": "crystal structure",
  "data": [
    {"protein": "B1", "values": [
      {"measurement": "stoichiometry N", "value": 4, "unit": "subunits per oligomer"}
    ]}
  ]
}
